Experimental data from paper PMC9974451.

Biological target: His-importin 7 (Xenopus laevis) (Xenopus laevis)
Assay: differential scanning fluorimetry; His-tagged NTR at 0.5 μM in TPB with 2 mM DTT, His-NOSIP or Ubc9 titrated in 18 steps from 0.05 to 5 μM, 5x SYPRO Orange, 25 to 90 °C; Tm plotted against concentration, exponential fit

B1: His-NOSIP (natural protein)
chain: MTRHGKNCTAGAVYTYHEKKKDTAASGYGTQNIRLSRDAVKDFDCCCLSLQPCHDPVVTPDGYLYEREAILEYILHQKKEIARQMKAYEKQRGTRREEQKELQRAASQDHVRGFLEKESAIVSRPLNPFTAKALSGTSPDDVQPGPSVGPPSKDKDKVLPSFWIPSLTPEAKATKLEKPSRTVTCPMSGKPLRMSDLTPVHFTPLDSSVDRVGLITRSERYVCAVTRDSLSNATPCAVLRPSGAVVTLECVEKLIRKDMVDPVTGDKLTDRDIIVLQRGGTGFAGSGVKLQAEKSRPVMQA
Kd: 447 nM
